Patent publication US20220242958A1, “BISPECIFIC NANOBODIES” (Ablynx N.V., priority 2013, published 2022)
Read-outs that look alike come from different tables or passages of the source.

Columns and labels:
[1] = biological target: T1, CXCR4 on Caki-CXCR4 cells (Homo sapiens, UniProt P61073); assay: Biotinylated SDF-1 displacement on Caki-CXCR4 cells (flow cytometry); assay type: binding; details: 30 nM biotinylated SDF-1; read-out: Ligand competition Biotin-SDF-1 IC50
T1 construct: expressed in transfected cells; host or cells: Caki-CXCR4
T1 sequence (P61073 whole entry): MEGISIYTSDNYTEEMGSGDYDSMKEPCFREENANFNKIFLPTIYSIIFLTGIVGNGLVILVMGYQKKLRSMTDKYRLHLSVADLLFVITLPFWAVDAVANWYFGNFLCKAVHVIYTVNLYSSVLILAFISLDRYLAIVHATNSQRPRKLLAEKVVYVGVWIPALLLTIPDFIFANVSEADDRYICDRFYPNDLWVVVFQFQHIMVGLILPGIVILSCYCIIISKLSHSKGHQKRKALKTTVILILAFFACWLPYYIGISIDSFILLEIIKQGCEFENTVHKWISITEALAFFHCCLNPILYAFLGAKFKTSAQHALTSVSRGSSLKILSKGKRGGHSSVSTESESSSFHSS
Method: CXCR4 Nanobodies were analysed for their ability to compete with the ligand CXCL12 (or SDF-1a) for receptor binding, by displacement of biotinylated SDF-1 on Caki-CXCR4 cells in flow cytometry. To this end serial dilutions of Nanobodies were incubated with 30 nM of biotinylated SDF-1 (R&D Systems Fluorokine kit) on cells, after which ligand binding was visualised using extravidin-PE. The biotin-SDF-1 competitor concentration used in this assay was below the EC50 value obtained in dose-titration, where IC50 values should reflect the Ki.

[2] = biological target: T2, CXCR4 on Jurkat E6-1 cells (Homo sapiens, UniProt P61073); assay: CXCL12/SDF-1a induced chemotaxis of Jurkat E6-1 cells; assay type: cell-based
T2 construct: endogenous in cells; host or cells: Jurkat E6-1
T2 sequence (P61073 whole entry): as above
Method: (§1) To verify if bispecific CXCR4-IL3Ra polypeptides show increased affinity and potency on cells expressing both receptors, a CXCR4-dependent functional assay was carried out. To this end SDF-1a dependent chemotaxis on Jurkat E6-1 (CXCR4+/IL3Ra−), and MOLM-13 cells (CXCR4+/IL3Ra+) was performed for direct comparison of cells expressing both or only one receptor. Since the functional blockade is only mediated via CXCR4, avidity by the simultaneous binding of the anti-IL3Ra Nanobody® is expected to translate into increased potency in inhibition of chemotaxis.
(§2) Bispecific polypeptides were analyzed for inhibition of CXCL12-induced chemotaxis on cells endogenously expressing CXCR4. As chemoattractant a concentration of 750 pM SDF-1a was used on 100,000 cells/well for the Jurkat cell line, and 500,000 cells/well for the MOLM-13 cell line. On each plate the corresponding monovalent CXCR4 Nanobody was included as reference, allowing to calculate the fold increase of the bispecific within each plate. As additional control 1:1 mixtures of monovalent Nanobodies were included. In Table 9 the respective IC50 values are shown (average of n=3 experiments).
To verify if bispecific CXCR4-IL-3Ra polypeptides show increased affinity and potency on cells expressing both receptors, a CXCR4-dependent functional assay was done. Since MOLM-13 cells express CD4 in conjunction with CXCR4 and CD123, the same experimental set-up was used as described for the CXCR4-CD123 bispecific Nanobodies (see: Example 1.5.5).
Dose-dependent inhibition of CXCL12-induced chemotaxis by the panel of bispecific CD4-CXCR4 Nanobodies was determined on Jurkat (CXCR4+/CD4 low), and Molm-13 cells (CXCR4++/CD4++). As reference anti-CXCR4 antibody 12G5 was included on each plate. […] Remarkably, bispecific constructs in the inverse orientation were able to block CXCR4 function, despite their reduced affinity for CXCR4 due to the unfavourable position, although the blockade was partial. The much larger potency increases observed with Nanobodies targeting the CD4 and CXCR4 combination is most likely related to the higher relative expression levels of CD4 compared to CD123 on the Molm-13 cells.

[3] = biological target: T3, CXCR4 on MOLM-13 cells (Homo sapiens, UniProt P61073); assay: CXCL12/SDF-1a induced chemotaxis of MOLM-13 cells; assay type: cell-based; details: average of 2-3 independent experiments; unit inferred; read-out: MOLM-13 IC50, inhibition of CXCL-12 induced chemotaxis
T3 construct: endogenous in cells; host or cells: MOLM-13
T3 sequence (P61073 whole entry): as above
Method: as §1
as §2, with “experiments). […]” for “experiments).”
Dose-dependent inhibition of CXCL12-induced chemotaxis by the panel of bispecific CD4-CXCR4 Nanobodies was determined on Jurkat (CXCR4+/CD4 low), and Molm-13 cells (CXCR4++/CD4++). […]

[4] = biological target: T1, CXCR4 on Caki-CXCR4 cells; assay: Binding of CXCR4 Nanobodies to Caki-CXCR4 cells
[5] = biological target: T4, CXCR4 on Jurkat cells (Homo sapiens, UniProt P61073); assay: Binding of CXCR4 Nanobodies to Jurkat cells
T4 construct: endogenous in cells; host or cells: Jurkat E6-1
T4 sequence (P61073 whole entry): as above

[6] = biological target: T5, CXCR4-VLP (Homo sapiens, UniProt P61073); assay: ELISA binding to CXCR4 viral lipoparticles (VLP)
T5 construct: purchased Integral Molecular (printed 'Molecular Integral')
T5 sequence (P61073 whole entry): as above
Method: Binding of CXCR4 Nanobodies to CXCR4-expressing cells was assessed on different cell lines, to assess EC50 values. For CXCR4 the membrane insertion is needed for proper conformation and functionality of the receptor. Therefore CXCR4 Nanobodies were characterized for binding to viral lipoparticles (VLP; Molecular Integral) expressing CXCR4 versus control lipoparticles in ELISA. To this end VLPs were coated at 0.5 U/well overnight at 4° C. using anti-myc antibodies for detection. Over all different binding assays, Nanobody 14D09 always exerted lower binding affinity than 14A02, as indicated by a shift in EC50 values. The results are depicted in FIG. 1.3.
To assess if the formatting into bispecific constructs affected the target binding capacity of the individual Nanobodies, the bispecific Nanobodies were analysed for binding to recombinant IL-3Ra (R&D Systems) in ELISA and to CXCR4 viral lipoparticles (Integral Molecular). […] However, CXCR4 binding of constructs with either CXCR4#1 or CXCR4#2 is retained only in one orientation, when the CXCR4 Nanobody is at the N-terminal position. The bispecific constructs where the CXCR4 Nanobody is positioned C-terminal show a 50-100-fold loss in binding to CXCR4-VLPs.

B1: CXCR4#1: anti-CXCR4 Nanobody, SEQ ID NO: 1 (protein)
VHH: EVQLVESGGGLVQAGGSLRLSCVASGISSSKRNMGWYRQAPGKQRESVATISSGGNKDYTDAVKDRFTISRDTTKNTVYLQMNSLKPEDTAVYYCKIEAGTGWATRRGYTYWGQGTQVTVSS
**Q.** With B1 as the molecule, how does the IC50 [1] read?
**A.** Its IC50 is 18.4 nM.

**Q.** What about the IC50 ([2]; average of 2-3 independent experiments, unit inferred, read-out: Jurkat E6-1 IC50, inhibition of CXCL-12 induced chemotaxis) of the same molecule?
**A.** The IC50 was 10.4 nM.

**Q.** What about the IC50 ([2]; cell line not stated, read-out: IC50 of monovalent CXCR4 Nanobody (chemotaxis potency)) of the same molecule?
**A.** Its IC50 is 10 nM.

**Q.** What about the IC50 ([2]; monovalent CXCR4 Nanobodies, Table 4, read-out: Chemotaxis Jurkat IC50) of the same molecule?
**A.** Its IC50 is 11 nM.

**Q.** What about the IC50 [3] of the same molecule?
**A.** Its IC50 is 8.62 nM.

**Q.** What about the EC50 [4] of the same molecule?
**A.** Its EC50 is 9.9 nM.

**Q.** What about the EC50 [5] of the same molecule?
**A.** The EC50 was 11 nM.

**Q.** What about the EC50 [6] of the same molecule?
**A.** The EC50 was 7.28 nM.
